Reference: article PMC2905418, “High-affinity consensus binding of target RNAs by the STAR/GSG proteins GLD-1, STAR-2 and Quaking”

Tests used:
GLD-1-STAR [1] = molecular target: T1, GLD-1-STAR (C. elegans, UniProt Q17339 135-336); assay: competition FP; details: probe TGE; 10 mM Tris pH 8.0, 25 mM NaCl, 0.1 mM EDTA, 0.1 mg/mL tRNA, 5 ug/mL heparin, 0.01% IGEPAL CA630, room temperature, 3 h; EMSA gel 6% native, 0.5x TBE, 4 C
T1 sequence: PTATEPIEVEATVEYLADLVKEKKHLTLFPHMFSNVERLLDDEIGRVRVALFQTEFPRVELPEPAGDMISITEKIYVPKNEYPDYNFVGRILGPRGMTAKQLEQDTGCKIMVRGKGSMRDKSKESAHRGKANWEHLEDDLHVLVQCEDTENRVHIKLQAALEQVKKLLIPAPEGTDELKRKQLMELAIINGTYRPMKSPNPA

STAR-2-STAR (C. elegans) [2] = assay: competition FP; details: probe TGE; 10 mM Tris pH 8.0, 25 mM NaCl, 0.1 mM EDTA, 0.1 mg/mL tRNA, 5 ug/mL heparin, 0.01% IGEPAL CA630, room temperature, 3 h; EMSA gel 6% native, 0.5x TBE, 4 C
STAR-2-STAR (C. elegans) [3] = assay: fluorescence polarization; details: 10 mM Tris pH 8.0, 25 mM NaCl, 0.1 mM EDTA, 0.1 mg/mL tRNA, 5 ug/mL heparin, 0.01% IGEPAL CA630, room temperature, 3 h; EMSA gel 6% native, 0.5x TBE, 4 C
STAR-2-STAR (C. elegans) [4] = assay: EMSA; details: 10 mM Tris pH 8.0, 25 mM NaCl, 0.1 mM EDTA, 0.1 mg/mL tRNA, 5 ug/mL heparin, 0.01% IGEPAL CA630, room temperature, 3 h; EMSA gel 6% native, 0.5x TBE, 4 C
GLD-1-STAR [5] = molecular target: T1, GLD-1-STAR; assay: competition FP; slightly tighter than WT 12-mer; 10 mM Tris pH 8.0, 25 mM NaCl, 0.1 mM EDTA, 0.1 mg/mL tRNA, 5 ug/mL heparin, 0.01% IGEPAL CA630, room temperature, 3 h; EMSA gel 6% native, 0.5x TBE, 4 C; details: protein: recombinant; tags: MBP fusion; chain copies: 2
Qk-1-STAR [6] = molecular target: T2, Qk-1-STAR (mouse, UniProt Q9QYS9 7-214); assay: competition FP; probe C21A TGE; 10 mM Tris pH 8.0, 25 mM NaCl, 0.1 mM EDTA, 0.1 mg/mL tRNA, 5 ug/mL heparin, 0.01% IGEPAL CA630, room temperature, 3 h; EMSA gel 6% native, 0.5x TBE, 4 C; details: protein: recombinant; tags: MBP fusion; chain copies: 2
T2 sequence: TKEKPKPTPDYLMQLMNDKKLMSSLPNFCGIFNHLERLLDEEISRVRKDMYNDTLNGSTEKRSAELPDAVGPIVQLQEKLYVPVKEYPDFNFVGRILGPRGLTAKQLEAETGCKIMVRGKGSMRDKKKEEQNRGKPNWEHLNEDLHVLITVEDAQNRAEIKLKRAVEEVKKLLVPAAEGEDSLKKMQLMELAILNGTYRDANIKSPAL

Qk-1-STAR [7] = molecular target: T2, Qk-1-STAR; assay: EMSA; first shift (K1); 10 mM Tris pH 8.0, 25 mM NaCl, 0.1 mM EDTA, 0.1 mg/mL tRNA, 5 ug/mL heparin, 0.01% IGEPAL CA630, room temperature, 3 h; EMSA gel 6% native, 0.5x TBE, 4 C; details: protein: recombinant; tags: MBP fusion; chain copies: 2; label: 5' 32P
Qk-1-STAR [8] = molecular target: T2, Qk-1-STAR; assay: EMSA; second shift (K2); 10 mM Tris pH 8.0, 25 mM NaCl, 0.1 mM EDTA, 0.1 mg/mL tRNA, 5 ug/mL heparin, 0.01% IGEPAL CA630, room temperature, 3 h; EMSA gel 6% native, 0.5x TBE, 4 C; details: protein: recombinant; tags: MBP fusion; chain copies: 2; label: 5' 32P
Qk-1-STAR [9] = molecular target: T2, Qk-1-STAR; assay: EMSA; 10 mM Tris pH 8.0, 25 mM NaCl, 0.1 mM EDTA, 0.1 mg/mL tRNA, 5 ug/mL heparin, 0.01% IGEPAL CA630, room temperature, 3 h; EMSA gel 6% native, 0.5x TBE, 4 C; details: protein: recombinant, tags: MBP fusion, chain copies: 2
GLD-1-STAR [10] = molecular target: T1, GLD-1-STAR; assay: competition FP; probe TGE; 10 mM Tris pH 8.0, 25 mM NaCl, 0.1 mM EDTA, 0.1 mg/mL tRNA, 5 ug/mL heparin, 0.01% IGEPAL CA630, room temperature, 3 h; EMSA gel 6% native, 0.5x TBE, 4 C; details: protein: recombinant, tags: MBP fusion, chain copies: 2
GLD-1-STAR [11] = molecular target: T1, GLD-1-STAR; assay: fluorescence polarization; 10 mM Tris pH 8.0, 25 mM NaCl, 0.1 mM EDTA, 0.1 mg/mL tRNA, 5 ug/mL heparin, 0.01% IGEPAL CA630, room temperature, 3 h; EMSA gel 6% native, 0.5x TBE, 4 C; details: protein: recombinant; tags: MBP fusion; chain copies: 2; label: 5' 32P (EMSA), 5' fluorescein (FP)
Qk-1-STAR [12] = molecular target: T2, Qk-1-STAR; assay: as above; details: protein: recombinant; tags: MBP fusion; chain copies: 2; label: 5' 32P (EMSA), 5' fluorescein (FP)
GLD-1-STAR [13] = molecular target: T1, GLD-1-STAR; assay: competition FP; probe TGE; 10 mM Tris pH 8.0, 25 mM NaCl, 0.1 mM EDTA, 0.1 mg/mL tRNA, 5 ug/mL heparin, 0.01% IGEPAL CA630, room temperature, 3 h; EMSA gel 6% native, 0.5x TBE, 4 C; details: protein: recombinant; tags: MBP fusion; chain copies: 2
GLD-1-STAR [14] = molecular target: T1, GLD-1-STAR; assay: fluorescence polarization; slightly tighter than WT TGE; 10 mM Tris pH 8.0, 25 mM NaCl, 0.1 mM EDTA, 0.1 mg/mL tRNA, 5 ug/mL heparin, 0.01% IGEPAL CA630, room temperature, 3 h; EMSA gel 6% native, 0.5x TBE, 4 C; details: protein: recombinant; tags: MBP fusion; chain copies: 2; label: 5' 32P (EMSA), 5' fluorescein (FP)
[15] = label: 5' 32P (EMSA), 5' fluorescein (FP)

Molecule: poly-U, two hexamers, 2-nt spacing
- Ki (GLD-1-STAR [1]): 22.7 nM

Molecule: AUCUAAUCAUAU [C19A 12-mer (WT background)]
- IC50 ratio, WT half-site vs mutant probe (IC50 WT half-site/C19A) (STAR-2-STAR (C. elegans) [2]): 4.2

Molecule: AUCUACUAAUAU [C21A (A21) half-site 12-mer]
- IC50 ratio (IC50 TGE/C21A 12-mer) (STAR-2-STAR (C. elegans) [2]): 2.7
- IC50 ratio, WT half-site vs mutant probe (IC50 WT half-site/C21A) (STAR-2-STAR (C. elegans) [2]): 20

Molecule: UAUUUAAUUUCUUAUCUACUAAUAUCUA [C21A TGE 28-mer]
- Kd (STAR-2-STAR (C. elegans) [3]): 5 nM
- Kd (STAR-2-STAR (C. elegans) [4]): 1.2 nM

Molecule: poly-U, two hexamers, 0-nt spacing
- Ki (GLD-1-STAR [1]): 25.3 nM

Molecule: poly-U, one hexamer at 5' end
- Ki (GLD-1-STAR [1]): 110 nM

Molecule: AUCUACUCAUAU [WT TGE half-site 12-mer (14-25; A21C in the A21 background)]
- IC50 ratio (IC50 TGE/WT half-site) (STAR-2-STAR (C. elegans) [2]): 0.13

Molecule: UAUUUAAUUUCUUAUCUACUCAUAUCUA [WT TGE 28-mer]
- Kd (STAR-2-STAR (C. elegans) [3]): 40 nM
- Kd (STAR-2-STAR (C. elegans) [4]): 36 nM

Molecule: poly-U, two hexamers, 4-nt spacing
- Ki (GLD-1-STAR [1]): 12.2 nM

Molecule: poly-U, two hexamers, 12-nt spacing
- Ki (GLD-1-STAR [1]): 4.8 nM

Molecule: AUCUACUAAUAU (ssRNA) [C21A (A21) half-site 12-mer]
- binding result (GLD-1-STAR [5]): binds
- Ki (Qk-1-STAR [6]): 46 nM

Molecule: GACACACUAACCUCGGUGGAAAAAUAACCAU (ssRNA) [MBP:2 (WT)]
- Kd (Qk-1-STAR [7]): 24.5 ± 5 nM
- Kd (Qk-1-STAR [8]): 269 ± 122 nM

Molecule: GACACUCGGUGCUCGGUGGAAAAAUAACCAU (ssRNA) [MBP:2-5'm1]
- Kd (Qk-1-STAR [9]; label: 5' 32P, predicted secondary structure (mfold)): 498 nM

Molecule: GACACUCUCUCCUCGGUGGAAAAAUAACCAU (ssRNA) [MBP:2-5'm2]
- Kd (Qk-1-STAR [9]; label: 5' 32P): 100 nM

Molecule: GACACACUAACCUCGGUGGAAACUCUUACAU (ssRNA) [MBP:2-3'm2]
- Kd (Qk-1-STAR [7]): 69 nM
- Kd (Qk-1-STAR [8]): 199 nM

Molecule: UAUUUAAUUUCUUAUCUACUCAUAUCUA (ssRNA) [WT TGE 28-mer]
- Kd (Qk-1-STAR [9]; [15]): 49 ± 2 nM
- Ki (GLD-1-STAR [10]; [15]): 11.1 ± 4 nM
- Kd (GLD-1-STAR [11]): 32 ± 3 nM
- Kd (Qk-1-STAR [12]): 63 ± 4 nM

Molecule: AUCUACUCAUAUCUAAUCGUCC (ssRNA) [TGE 46-67]
- Ki (GLD-1-STAR [10]): 10.7 ± 2 nM

Molecule: AUCUACUCAUAUCUACUCAUAU (ssRNA) [TGE 14-35]
- Ki (GLD-1-STAR [10]): 4.6 ± 0.8 nM

Molecule: UAUUUAAUUUCUUAUCUA (ssRNA) [TGE 1-18]
- binding signal (GLD-1-STAR [13]): 42 fold weaker than TGE

Molecule: AUCUAAUCGUCC (ssRNA) [TGE 56-67]
- binding signal (GLD-1-STAR [13]): 32 fold weaker than TGE

Molecule: AUCUACUCAUAU (ssRNA) [WT TGE half-site 12-mer (14-25; A21C in the A21 background)]
- binding signal (GLD-1-STAR [13]): ~9 fold weaker than TGE
- binding result (Qk-1-STAR [6]): no binding

Molecule: UUUUUUUUUUUUUUUUUUUUUUUUUUUU (ssRNA) [poly-U 28-mer]
- binding result (GLD-1-STAR [10]): no binding

Molecule: UAUUUAAUUUCUUAUCUACUAAUAUCUA (ssRNA) [C21A TGE 28-mer]
- Kd (Qk-1-STAR [9]; [15]): 1.2 ± 0.2 nM
- binding result (GLD-1-STAR [14]): binds
- Kd (Qk-1-STAR [12]): 13 ± 2 nM

Molecule: AUCUAAUAAUAU (ssRNA) [C19A 12-mer (A21 background)]
- binding result (Qk-1-STAR [6]): no binding

Molecule: UAUUCUCUUUCUUAUCUACUAAUAUCUA (ssRNA) [C21A TGE 5' mutant]
- Kd (Qk-1-STAR [9]; label: 5' 32P): 7.1 ± 1 nM
